Data as given in the RNAGym collection of RNA variant scans (doi:10.1073/pnas.2313332121).

B1: TPR t1 (parent)
chain: GACCAAUCUGCCCUCAGAGCUCGAGAACAUCUUCGGAUGCAGAGGAGGCAGGCUUCGGUGGCGCGAUAGCGCCAACGUCCUCAACCUCCAAUGCAUCCCACCACAUGAUGAUGCCUGAAGAGCCUUGGUUUUUUG

Variants of: B1
Test: polymerase ribozyme fitness, log enrichment relative to wild type (log ratio); higher = more active; in vitro selection for triplet polymerase activity
In short: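 Each subunit of a heterodimeric triplet polymerase ribozyme was represented by a PCR-built, transcribed mutant library that underwent triplicate single-round in vitro selection with frozen incubation at −7 °C. Extended constructs were recovered by gel excision, streptavidin-bead capture and RT-PCR, and Illumina sequencing of input and output libraries kept genotypes with ≥10 input reads and ≥1 read per output. Fitness is the logarithm of genotype enrichment relative to wild-type enrichment, from inverse-variance-weighted replicate averages, with a logarithm base of 2.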

Row | Variant | polymerase ribozyme fitness (log ratio)
1 | GACCAAUCUGCCCUCAGAGCUCGAGAACAUCUUCCGAUGCAGAGGAGGCAGGCUUCGGUGGCGCGAUAGCGCCAACGUCCUCAACCUCCAAUACAUCCCACCACAUGAUGAUGCCUGAAGAGCCUUGGUUUUUUG | -4.92
2 | GACCAAUCUGCCCUCAGAGCUCGAGAACAUCUUCCGAUGCAGAGGAGGCAGGCUUCGGUGGCGCGAUAGCGCCAACGUCCUCAACCACCAAUGCAUCCCACCACAUGAUGAUGCCUGAAGAGCCUUGGUUUUUUG | -5.04
3 | GACCAAUCUGCCCUCAGAGCUCGAGAACAUCUUCCGAUGCAGAGGAGGCAGGCUUCGGUGGCGCGAUAGCGCCAACGUCCUCAACCUCCAAUGCAUCCCACCACAUGAUGAUGCCUGAAGAGCCUUGGGUUUUUG | -6.04
4 | GACCAAUCUGCCCUCAGAGCUCGAGAACAUCUUCUGAUGCAGAGGGGGCAGGCUUCGGUGGCGCGAUAUCGCCAACGUCCUCAACCUCCAAUGCAUCACACCACAUGAUGAUGCCUGAAGAGCCUUGGUUUUUUG | -0.783
5 | GACCAAUCUGCCCUCAGAGCUCGAGAACAUCUUCUGAUGCAGAGGAGGCAGGUUUCGGUGGCGCGAUAUCGCCAACGUCCUCAACCUCCAAUGCAUCCCACCACAUGAUUAUGCCUGAAGAGCCUUGGUUUUUUG | -4.63
6 | GACCAAUCUGCCCUCAGAGCUCGAGAACAUCUUCUGAUGCAGAGGAGGCAGGCUUCGGUGGCGCGAUAGCGCGAACGUCCUCAACCUCCAAUGCAUCCCACCACAUGAUGAUGCCUGAAGAGCCUUGGUUUUUUG | -5.75
7 | GACCAAUCUGCCCUCAGAGCUCGAGAACAUCUUCUGAUGCAGAGGAGGCAGGCUUCGGUGGCGCGAUAGCGCUAACGUCCUCAACCUCCAAUGCAUCCCACCACAUGAUGACGCCUGAAGAGCCUUGGUUUUUUG | -2.9
8 | GACCAAUCUGCCCUCAGAGCUCGAGAACAUCUUCUGAUGCAGAGGAGGCAGGCUUCGGUGGCGCGAUAGCGCCAACGUCCUUAACCUCCAAUGCAUCCCACCACAUGAUGAUGCAUGAAGAGCCUUGGUUUUUUG | -6.43
9 | GACCAAUCUGCCCUCAGAGCUCGAGAACAUCUUCUGAUGCAGAGGAGGCAGGCUUCGGUGGCGCGAUAGCGCCAACGUCCUCAACCUCCAAUGCAUCCCACCACAUGAUGAUGCAUGAACAGCCUUGGUUUUUUG | -5.77
10 | GACCAAUCUGCCCUCAGAGCUCGAGAACAUCUUCUGAUACAGAGGAGGCAGGCUUCGGUGGCGCGAUAGCGCCAACGUCCUCAACCUCCAAUGCAUCCCACCACAUGAUGAUGCCUGAAGAGCCUUGGUUUUUUG | -5.13
11 | GACCAAUCUGCCCUCAGAGCUCGAGAACAUCUUCUGAUUCAGAGGAGGCAGGCUUCGGUGGCGCGAUAGCGUCAUCGUCCUCAACCUCCAAUGCAUCCCACCUCAUGAUGAUGCCUGAAGAGCCUUGGUUUUUUG | -8.04
12 | GACCAAUCUGCCCUCAGAGCUCGAGAACAUCUUCUGAUGCAGAAGAGGCAGGCUUCGGUGGCGCGACAGCGCCAACGUCCUCAACCUCCAAUGCAUCCCACCACGUGAUGAAGCCUGAAGAGCCUUGGUUUUUUG | -6.79
13 | GACCAAUCUGCCCUCAGAGCUCGAGAACAUCUUCUGAUGCAGAGAAGGCAGGCUUCGGUGGCGCGAUAGCGCCAACGUCCACAACCUCAAAUGCAUCCCACCACAUGAUGAUGCCUGAAAAGCCUUGGUUUUUUG | -4.73
14 | GACCAAUCUGCCCUCAGAGCUCGAGAACAUCUUCUGAUGCAGAGGAGGCAGGCUUCGAUGGCGCGAUAGCGCCAACGUCCUCAACCUCCAAUGCAUCCCACCACAUGAUGAUGCUUGAAGAGCCUUGGUUUUUUG | -7.02
15 | GACCAAUCUGCCCUCAGAGCUCGAGAACAUCUUCUGAUGCAGAGGAGGCAGGCUUCGGUGUCGCGAUAGCGCCAACGUCCUCAACCUCCAAUGCAUCCCACCACAUGAUGAUGCCUGAAGAGCCUUGGUUUUUUG | -5.28
16 | GACCAAUCUGCCCUCAGAGCUCGAGAACAUCUUCUGAUGCAGAGGAGGCAGGCUUCGGUGGCUCGAUAGCGCCAACGUCCUCAACCUCCAAUGCAUCCCACCACAUGAUGAUGCCUGAAGAGCCUUGGUUUUUUG | -6.36
17 | GACCAAUCUGCCCUCAGAGCUCGAGAACAUCUUCUGAUGCAGAGGAGGCAGGCUUCGGUGGCGCGAUAACGCCAACGUCCCCAACCUCCAAUGCAUCCCACCACAUGAUGAUUCCUGAAGAGCCUUGGUUUUUUG | -6.53
18 | GACCAAUCUGCCCUCAGAGCUCGAGAACAUCUUCUGAUGCAGAGGAGGCAGGCUUCGGUGGCGCGAUAUCGCCAACGUUCUCAACCUCCAAUGCAUCCCACCACAUGAUGAUGCCUGAAGAGCCUUGGUUUUUUG | -3.35
19 | GACCAAUCUGCCCUCAGAGCUCGAGAACAUCUUCGAGUGCAGAGGAGGCAGGCUUCGGUGGCGCGAUAGCGUCAACGUCCUCAACCUCCAAUGCAUCCCACCACAUGAUGAUGCCUGAAGAACCUUGGUUUUUUG | -1.5
20 | GACCAAUCUGCCCUCAGAGCUCGAGAACAUCUUCGAAUGCAGCGGAGGCAGGCUUCGGUGGCGCGAUAGCGCCAACGUCCUCAACCUCCAAUGCAUCCCACCACAUGAUGAUGCAUGAAGAGCCUUGGUUUUUUG | -3.76
21 | GACCAAUCUGCCCUCAGAGCUCGAGAACAUCUUCGAAUGCAGUGGAGGCAGGCUUCGGUGGUGCGAUAGCGCCAACGUCCUCAACCUCCAAUGCAUCCCACCACAUGAUGAUACCUGAAGAGCCUUGGUUUUUUG | -3.5

Row | Variant | polymerase ribozyme fitness (log ratio)
22 | GACCAAUCUGCCCUCAGAGCUCGAGAACAUCUUCGAAUGCAGAGGCGGCAGGCUUCGGUGACGCGAUAGCGCCAACGUCCUCAACCUCCCAUGCAUCCCACCACAUGAUGAUGCCUGCAGAGCCUUGGUUUUUUG | -6.53
23 | GACCAAUCUGCCCUCAGAGCUCGAGAACAUCUUCGAAUGCAGAGGUCGCAGGCUUUGGUGGCGCGAUAGCGCCAACGUCCUCAACCUCCAAUGCAUCCCACCACAAGAUGAUGCCUGAAGAGCCUUGGUUUUUUG | -3.75
24 | GACCAAUCUGCCCUCAGAGCUCGAGAACAUCUUCGAAUGCAGAGGAGGCAGGCUUCGGUGGCGCGUUAGCGCCAACGUCCUCAACCUACAAUGCAUCCCACCAGAUGAUGAUACCUGAAGAGGAUUGGUUUUUUG | -5.59
25 | GACCAAUCUGCCCUCAGAGCUCGAGAACAUCUUCGAAUGAAGAGGAGGCAGGGUUCGGCGGCGCGAUAGCGCCAACGUCCUCAACCUCCAAUGCAUCCCACCACAUGAUGAUGCCUGAAGAGCGUUGGUUUUUUG | -2.06
26 | GACCAAUCUGCCCUCAGAGCUCGAGAACAUCUUCGAAUGCAGAGGAGGGAGGCUUCGGUGGCGCGAUAGCGCCAACGUCCUCAACCUCCAAUACGUCCCACCACAUGAUGAUGCCUGAAGAGCCUUGGUUUUUUG | -3.09
27 | GACCAAUCUGCCCUCAGAGCUCGAGAACAUCUUCGAAUGCAGAGGAGGCAGGCUUAGGUGACGCGAUAGCGCCAACGUCCUCAACCUCCAAUGCAUCCCACCACAUGAUGAUGCCUGAAGAGCCUUGGUUUUUUG | -2.16
28 | GACCAAUCUGCCCUCAGAGCUCGAGAACAUCUUCGAAUGCAGAGGAGGCAGGCUUCGGUGGAGCGAUAGCGCCAACGUCCUCAACCUCUAAUGCCUCCCACCACAUGAUGAUGUCUGAAGAGCCUUGGUUUUUUG | -6.66
29 | GACCAAUCUGCCCUCAGAGCUCGAGAACAUCUUCGAAUGCAGAGGAGGCAGGCUUCGGUGGUGCGAUAGCGUCAACGUCCUCAACCUCCAAUGCAUCCCACCACAUGAUGAUGCCUGAAGAGCCUUGGUUUUUUG | -0.886
30 | GACCAAUCUGCCCUCAGAGCUCGAGAACAUCUUCGAAUGCAGAGGAGGCAGGCUUCGGUGGCGGGAUAGCGCCAACGUCCUCAACCUCCAAUGCAUCCCACCAGAUGAUAAUGCCUGAAGAGCCUUUGUUUUUUG | -6.24
31 | GACCAAUCUGCCCUCAGAGCUCGAGAACAUCUUCGAAUGCAGAGGAGGCAGGCUUCGGUGGCGCGAUAGAGCCAACGUCCUCAACCUCCAAUGCAUCCCACCACAUGAUGAUGCCUGAAGAGCCUUGGUUUUUUG | -2.23
32 | GACCAAUCUGCCCUCAGAGCUCGAGAACAUCUUCGAAUGCAGAGGAGGCAGGCUUCGGUGGCGCGAUAGUGCCAAAGUCCUCAAUCUCCAAUGCAUCCCACCACAUGAUGAUGCCUGAAGAGCCUUGGUUUUUUG | -3.99
33 | GACCAAUCUGCCCUCAGAGCUCGAGAACAUCUUCGAAUGCAGAGGAGGCAGGCUUCGGUGGCGCGAUAGCGACAACGUCCUCAACCUCCAAUGCAUUCCACCACAUGAUGAUGCCUGAAGAGCCUUGGUUUUUUG | 0.549
34 | GACCAAUCUGCCCUCAGAGCUCGAGAACAUCUUCGAAUGCAGAGGAGGCAGGCUUCGGUGGCGCGAUAGCGGCAACGUCCUCAACCUCCAAAGCAUCCCACCACAUGAUGAUGCCUGAAGAGCCUUGGUUUUUUG | -5.43
35 | GACCAAUCUGCCCUCAGAGCUCGAGAACAUCUUCGAAUGCAGAGGAGGCAGGCUUCGGUGGCGCGAUAGCGUCAACGUCCUCAAGCUCUAAUGUAUCCCACCACAUGAUGAUGCCUGAAGAGCCUUGGUUUUUUG | -2.78
36 | GACCAAUCUGCCCUCAGAGCUCGAGAACAUCUUCGAAUGCAGAGGAGGCAGGCUUCGGUGGCGCGAUAGCGCCAACGUCCUUAACCUCCAAUGCAUCCCACCACAUGAUGAUGCCUGAAGAGGCUUGGUUUUUUG | 0.9
37 | GACCAAUCUGCCCUCAGAGCUCGAGAACAUCUUCGAAUGCAGAGGAGGCAGGCUUCGGUGGCGCGAUAGCGCCAACGUCCUCAAGCUCCAAUGCAUCCCACCACAUGAUGAUGCCUGAAGAGCCUUGGUUCUUUG | -2.08
38 | GACCAAUCUGCCCUCAGAGCUCGAGAACAUCUUCGAAUGCAGAGGAGGCAGGCUUCGGUGGCGCGAUAGCGCCAACGUCCUCAACCUCUAAUGGAUCCCACCACAUGAUGAUGUCUGAAGAGCCUUGGUUUUUUG | -5.66
39 | GACCAAUCUGCCCUCAGAGCUCGAGAACAUCUUCGAAUGCAGAGGAGGCAGGCUUCGGUGGCGCGAUAGCGCCAACGUCCUCAACCUCCAAUGAAUCCCACCACAUGAUGAUGCCUGAAGAGCCUUGGUUUUUUG | -2.77
40 | GACCAAUCUGCCCUCAGAGCUCGAGAACAUCUUCGAAUGCAGAGGAGGCAGGCUUCGGUGGCGCGAUAGCGCCAACGUCCUCAACCUCCAAUGCAUCCCACAAAAUGAUGAUGCCUGAAUAGCCUUGGUUUUUUG | -4.83
41 | GACCAAUCUGCCCUCAGAGCUCGAGAACAUCUUCGAAUGCAGAGGAGGCAGGCUUCGGUGGCGCGAUAGCGCCAACGUCCUCAACCUCCAAUGCAUCCCACCACAUGAUGAUGCCUGAAGAGACUUGGUUUUUUG | 0.117
42 | GACCAAUCUGCCCUCAGAGCUCGAGAACAUCUUCGAAUGCACAGGAGGCAGGCUUCGGUGGCGCGAUAGCGCCAAGGUCCUCAACCUCCAAUGCAUCCCACCACAUGAUGAUGCCUGAAGAGCCUUGGUUUUUUG | -2.73
